This passage reports self-cleavage results from the RNAGym collection of RNA variant scans (doi:10.7554/elife.80360).

The labels stand for the following.
B1: CPEB3 Ribozyme (parent)
chain: GGGGGCCACAGCAGAAGCGUUCACGUCGCGGCCCCUGUCAGAUUCUGGUGAAUCUGCGAAUUCUGCUGU

In the data set the parent is B1. Description: self-cleavage, relative activity (ratio to wild type); higher = more cleavage; co-transcriptional.
For the variant GGCGGCCACAGCAGAAGCGUUCACGUCGCGGCCCCUGUCAUAUUCUGGUGAAUCUGCGAAUUCUGCUGU [G3C G41U], the self-cleavage was found to be 0.0159.

Take GGCGGCCACAGCAGAAGCGUUCACGUCGCCGCCCCUGUCAGAUUCUGGUGAAUCUGCGAAUUCUGCUGU [G3C G30C]: the self-cleavage was 0.0279.

As to GGCGGCCACAGCAGAAGCGUUCACGUCGCAGCCCCUGUCAGAUUCUGGUGAAUCUGCGAAUUCUGCUGU [G3C G30A], the self-cleavage was determined as 0.0737.

On to GGCGGCCACAGCAGAAGCGUUCACGUCGCGGCCCCAGUCAGAUUCUGGUGAAUCUGCGAAUUCUGCUGU [G3C U36A], for which the self-cleavage was found to be 0.0318.

As for GGCGGCCACAGCAGAAGCGUUCACGUCGCGGCCCCGGUCAGAUUCUGGUGAAUCUGCGAAUUCUGCUGU [G3C U36G], the self-cleavage is 0.329.

On to GGCGGCCACAGCAGAAGCGUUCACGUCGCGGCCCCCGUCAGAUUCUGGUGAAUCUGCGAAUUCUGCUGU [G3C U36C], for which the self-cleavage came out at 0.0612.

For GGCGGCCACAGCAGAAGCAUUCACGUCGCGGCCCCUGUCAGAUUCUGGUGAAUCUGCGAAUUCUGCUGU [G3C G19A], the self-cleavage was found to be 0.0368.

As for GGCGGCCACAGCAGAAGCCUUCACGUCGCGGCCCCUGUCAGAUUCUGGUGAAUCUGCGAAUUCUGCUGU [G3C G19C], the self-cleavage is 0.0344.

Consider GGCGGCCACAGCAGAAGCGUUCACGUCGCGGCCCCUGUCAGAUUCUGGUGAAUCUGCGAAGUCUGCUGU [G3C U61G], for which the self-cleavage is 0.0927.

Take GGCGGCCACAGCAGAAGCGUUCACGUCGCGGCCCCUGGCAGAUUCUGGUGAAUCUGCGAAUUCUGCUGU [G3C U38G]: the self-cleavage was found to be 0.0344.

In the case of GGCGGCCACAGCAGAAGCGUUCACGUCGCGGCCCCUGACAGAUUCUGGUGAAUCUGCGAAUUCUGCUGU [G3C U38A], the self-cleavage was found to be 0.1.

As for GGCGGCCACAGCAGAAGCGUUCACGUCGCGGCCCCUGUCAGAUUCUUGUGAAUCUGCGAAUUCUGCUGU [G3C G47U], the self-cleavage amounted to 0.0876.

Regarding GGCGGCCACAGCAGAAGCGUUCACGUCGCGGCCCCUGUCAGAUUCUAGUGAAUCUGCGAAUUCUGCUGU [G3C G47A], the self-cleavage was 0.264.

GGCGGCCACAGCAGAAGCGUUCACGUCGCGGCCCCUGUCAGAUUCUCGUGAAUCUGCGAAUUCUGCUGU [G3C G47C]: the self-cleavage is 0.136.

With GGCGACCACAGCAGAAGCGUUCACGUCGCGGCCCCUGUCAGAUUCUGGUGAAUCUGCGAAUUCUGCUGU [G3C G5A], the self-cleavage stood at 0.0417.

Consider GGCGUCCACAGCAGAAGCGUUCACGUCGCGGCCCCUGUCAGAUUCUGGUGAAUCUGCGAAUUCUGCUGU [G3C G5U], for which the self-cleavage was found to be 0.00743.

Regarding GGCGGCCACAGCAGAAGCGUUCACGUCGCGGCCCCUGUCAGAUUCUGGUGAAUCUGCGAAUUCAGCUGU [G3C U64A], the self-cleavage was found to be 0.0618.

Regarding GGCGGCCACAGCAGAAGCGUUCACGUCGCGGCCCCUGUCAGAUUCUGGUGAAUCUGGGAAUUCUGCUGU [G3C C57G], the self-cleavage was determined as 0.0873.

As for GGCGGCCACAGCAGAAGCGUUCACGUCGCGGCCCCUGUCAGAUUCUGGUGAAUCUGUGAAUUCUGCUGU [G3C C57U], the self-cleavage stood at 0.015.

For the variant GGCGGCCACAGCAGAAGCGUUCACGUCGCGGCCCCUGUCAGAUUCUGGUGAAUCUGAGAAUUCUGCUGU [G3C C57A], the self-cleavage was determined as 0.0768.

For the variant GGCGGCCACAGCAGAAGCGUUCACGUCGCGGCCCCUGUCAGAUACUGGUGAAUCUGCGAAUUCUGCUGU [G3C U44A], the self-cleavage stood at 0.0725.

Turning to GGCGGCCACAGCAGAAGCGUUCACGUCGCGGCCCCUGUCAGAUGCUGGUGAAUCUGCGAAUUCUGCUGU [G3C U44G], the self-cleavage turned out to be 0.054.

Consider GGCGGCCACAGCAGAAGCGUUCACGUCGCGGCCCCUGUCAGAUUCCGGUGAAUCUGCGAAUUCUGCUGU [G3C U46C], for which the self-cleavage turned out to be 0.126.

On to GGCGGCCACAGCAGAAGCGUUCACGUCGCGGCCCCUGUCAGAUUCAGGUGAAUCUGCGAAUUCUGCUGU [G3C U46A], for which the self-cleavage was determined as 0.113.

Turning to GGCGGCCACAGCAGAAGCGUUCACGUCGCGGCCCCUGUCAGAUUCUGGUGAAUCUGCGAAUCCUGCUGU [G3C U62C], the self-cleavage is 0.0572.

Regarding GGCGGCCACAGCAGAAGCGUUCACGUCGCGGCCCCUGUCAGAUUCUGGUGAAUCUGCGAAUGCUGCUGU [G3C U62G], the self-cleavage was 0.0946.

As for GGCGGCCACAGCAGAAGCGGUCACGUCGCGGCCCCUGUCAGAUUCUGGUGAAUCUGCGAAUUCUGCUGU [G3C U20G], the self-cleavage was 0.0823.

In the case of GGCGGCCACAGCAGAAGCGAUCACGUCGCGGCCCCUGUCAGAUUCUGGUGAAUCUGCGAAUUCUGCUGU [G3C U20A], the self-cleavage came out at 0.0845.

Regarding GGCGGCCACAGCAGAAGCGUUCACGGCGCGGCCCCUGUCAGAUUCUGGUGAAUCUGCGAAUUCUGCUGU [G3C U26G], the self-cleavage stood at 0.0558.

Regarding GGCGGCCACAGCAGAAGCGUUCACGCCGCGGCCCCUGUCAGAUUCUGGUGAAUCUGCGAAUUCUGCUGU [G3C U26C], the self-cleavage came out at 0.0733.

Turning to GGCGGCCACAGCAGAAGCGUUCACGUCGCGGCCCCUGUCAGAUUCUGGUGAAUCUGCGAAUUAUGCUGU [G3C C63A], the self-cleavage worked out at 0.0751.

In the case of GGCGGCCACAGCAGAACCGUUCACGUCGCGGCCCCUGUCAGAUUCUGGUGAAUCUGCGAAUUCUGCUGU [G3C G17C], the self-cleavage is 0.0303.

For the variant GGCGGCCACAGCAGAAUCGUUCACGUCGCGGCCCCUGUCAGAUUCUGGUGAAUCUGCGAAUUCUGCUGU [G3C G17U], the self-cleavage came out at 0.0348.

For GGCGGCCACAGCAGAAACGUUCACGUCGCGGCCCCUGUCAGAUUCUGGUGAAUCUGCGAAUUCUGCUGU [G3C G17A], the self-cleavage stood at 0.0395.

GGCGGCCACAGCAGAAGCGUGCACGUCGCGGCCCCUGUCAGAUUCUGGUGAAUCUGCGAAUUCUGCUGU [G3C U21G]: the self-cleavage worked out at 0.

Consider GGCGGCCACAGCAGAAGCGUCCACGUCGCGGCCCCUGUCAGAUUCUGGUGAAUCUGCGAAUUCUGCUGU [G3C U21C], for which the self-cleavage was determined as 0.058.

In the case of GGCGGCCACAGCAGAAGCGUACACGUCGCGGCCCCUGUCAGAUUCUGGUGAAUCUGCGAAUUCUGCUGU [G3C U21A], the self-cleavage was determined as 0.072.

Consider GGCGGCCACAGCAGAAGCGUUCACGUCGCGGCCCCUGUCAGAGUCUGGUGAAUCUGCGAAUUCUGCUGU [G3C U43G], for which the self-cleavage is 0.104.

In the case of GGCGGCCACAGCAGAAGCGUUCACGUCGCGGCCCCUGUCAGAAUCUGGUGAAUCUGCGAAUUCUGCUGU [G3C U43A], the self-cleavage was 0.0425.
